Test results taken from patent US11505586B2, “Interaction of Draxin and γ-netrins” (Max-Planck-Gesellschaft zur Foerderung der Wissenschaften …, priority 2014, dated 2022).

Assays:
endogenous netrins = experiment: In situ detection of Draxin binding partners with affinity probe; design: species or system zebrafish
Experimental: A netrin binding fragment of Draxin (aa209-284) fused to the Fc region of human IgG (Draxinaa209-284-hFc) has been expressed in HEK293-6E cells and used as an affinity probe to detect binding partners in zebrafish embryos. Draxinaa209-284-hFc in situ staining has been done in whole mount wild type and netrin-1 knockdown zebrafish embryos. At 46 hpf wild type zebrafish embryos were dechorionated by for 2 hours at RT incubation in 0.1 mg/ml Pronase. At 48 hpf embryos were prefixed for 10 min at RT in 4% (w/v) paraformaldehyde (PFA) containing 1% Triton X-100 (v/v). After 3 washes (each 20 min) with PBS+1% Triton X-100 the embryos were blocked for 4 h at RT in PBS containing 0.2% BSA and 0.5% Triton X-100. Overnight incubation at 4° C. with HEK293-6E supernatant containing the Draxin-hFc fusion protein was followed by 3 short washes (10 min each) with PBST. Subsequently the embryos were post-fixed in 4% PFA (4 h at RT or overnight at 4° C.), rinsed shortly 3 times with PBST and incubated for 4 h at RT with an Alexa Fluor 568 goat anti human IgG antibody (Invitrogen, 1:250 dilution). After 3 washes (30 min each) in PBST the embryos were mounted in glycerol for visualization using a Zeiss LSM 510 microscope. […]

Netrin1a/DCC = experiment: AVEXIS based competition assay; format: binding, zebrafish; settings: inhibitor added together with DCC prey, Netrin1a bait
Source text: The procedure of the competition assay is based on the AVEXIS assay. Netrin1 receptors were used as prey proteins together with 6×His ? tagged purified Draxin (potential antagonist), and probed against Netrin1a bait proteins. The indicated concentrations of the potential inhibitors have been added together with prey proteins. For the competition tests with purified Draxin the concentration of the Netrin receptor prey proteins has been adjusted to an identical threshold binding concentration.
We determined the concentration of ECD-hFc fusion proteins in tissue culture supernatants by ELISA, using the human IgG Fc fragment (Calbiochem) as a reference. Dilution series of the ECD-hFc containing supernatants have been incubated over night at 4° C. on 96 well Maxisorp plates (Nunc). After 3 PBS washes the plates were blocked with 0.5% BSA containing PBS (1 h). After additional 2 PBS washes and 1-hour incubation with an anti-human IgG (Fc specific) antibody fused to alkaline phosphatase (SIGMA) the plates have been washed 3 times with PBS. The detection has been carried out by addition of 50 μl/well of the AP substrate p-nitrophenylphosphate (SouthernBiotech). The substrate turnover has been determined by measuring the absorbance at 405 nm.
By using an AVEXIS-based competition assay (FIG. 6 A) we tested whether the binding of DraxinA to Netrin1a has an influence on Netrins ability to bind to Netrin receptors. First we confirmed that we reliably detected the binding of Netrin1a to Netrin receptors of the DCC/Neo1 and Unc5 families with the AVEXIS method. We also tested whether Draxin is able to bind to the corresponding Netrin receptors. […] This has also been confirmed by a recent publication (Haddick et al. 2014). In the competition assay the extracellular domains (ECDs) of Netrin receptors have been used as prey proteins together with purified full length DraxinA and probed for binding against Netrin1a bait proteins. […] The inhibition is specific for DraxinA.

B1: Draxinaa209-284-hFc: netrin binding fragment of Draxin (aa209-284) fused to the Fc region of human IgG, affinity probe (protein)
chain: GHPPTLPPASTKPQKSSQGRTQGEVMPTLDMTLFDWTDYEDMKPADSWPSNKRKDKRRSKNKSNGNTTTEAGIVEP
modifications: left off: a dimerising Fc or GST
Endogenous netrins; 48 hpf netrin1a and netrin1b double-knockdown embryos
  in situ signal of bound affinity probe: barely detectable
Endogenous netrins; 48 hpf wild type embryos
  in situ signal of bound affinity probe: only detect a signal in close proximity to the floor plate

B2: DraxinA-hFc: full-length DraxinA fused to human Fc (protein)
chain: SEISSDNFKQSLTPSTTTSKEHPETGLTGGRQQKRHWSGKERDSAGLFSQRHMDRLEDDGTSMEGLSPVRLEMGPGDTMKAEVHGEVRASAQMRQGSHPAEGELNRKGRRHSHRLLAEHRKHGGKKDKGRGKGDLSDPEPELDSLLKDLNAFEDGLNTSPPNYNSVPLNEVPSPLSPILVTTAIKGHPPTLPPASTKPQKSSQGRTQGEVMPTLDMTLFDWTDYEDMKPADSWPSNKRKDKRRSKNKSNGNTTTEAGIVEPCDHHLDCLSGSCCDLREFECKPHNRGLNNKCFDDCMCEEGLRCYAKFHRKRRVTRRRGRCVDPESVNSNQGAFITV
modifications: left off: a dimerising Fc or GST
Netrin1a/DCC
  inhibition of binding of Netrin1a to DCC: able to outcompete

B3: DraxinAΔaa231-252-hFc: DraxinA-hFc where the 21aa Netrin1 binding motif has been deleted (protein)
chain: SEISSDNFKQSLTPSTTTSKEHPETGLTGGRQQKRHWSGKERDSAGLFSQRHMDRLEDDGTSMEGLSPVRLEMGPGDTMKAEVHGEVRASAQMRQGSHPAEGELNRKGRRHSHRLLAEHRKHGGKKDKGRGKGDLSDPEPELDSLLKDLNAFEDGLNTSPPNYNSVPLNEVPSPLSPILVTTAIKGHPPTLPPASTKPQKSSQGRTQADSWPSNKRKDKRRSKNKSNGNTTTEAGIVEPCDHHLDCLSGSCCDLREFECKPHNRGLNNKCFDDCMCEEGLRCYAKFHRKRRVTRRRGRCVDPESVNSNQGAFITV
modifications: left off: a dimerising Fc or GST
Netrin1a/DCC
  inhibition of binding of Netrin1a to DCC: not able to compete
